The values below come from paper doi:10.1101/094961 (bioRxiv, 2017).

For this test, the target named is RNAP β' subunit with 6his tag (rpoC-6his), in purified δ-containing RNAP (B. subtilis, UniProt P37871 1-1199). The test can be described thus: cross-linking.
Chain of RNAP β' subunit with 6his tag (rpoC-6his), in purified δ-containing RNAP (P37871 whole entry, stated change not applied): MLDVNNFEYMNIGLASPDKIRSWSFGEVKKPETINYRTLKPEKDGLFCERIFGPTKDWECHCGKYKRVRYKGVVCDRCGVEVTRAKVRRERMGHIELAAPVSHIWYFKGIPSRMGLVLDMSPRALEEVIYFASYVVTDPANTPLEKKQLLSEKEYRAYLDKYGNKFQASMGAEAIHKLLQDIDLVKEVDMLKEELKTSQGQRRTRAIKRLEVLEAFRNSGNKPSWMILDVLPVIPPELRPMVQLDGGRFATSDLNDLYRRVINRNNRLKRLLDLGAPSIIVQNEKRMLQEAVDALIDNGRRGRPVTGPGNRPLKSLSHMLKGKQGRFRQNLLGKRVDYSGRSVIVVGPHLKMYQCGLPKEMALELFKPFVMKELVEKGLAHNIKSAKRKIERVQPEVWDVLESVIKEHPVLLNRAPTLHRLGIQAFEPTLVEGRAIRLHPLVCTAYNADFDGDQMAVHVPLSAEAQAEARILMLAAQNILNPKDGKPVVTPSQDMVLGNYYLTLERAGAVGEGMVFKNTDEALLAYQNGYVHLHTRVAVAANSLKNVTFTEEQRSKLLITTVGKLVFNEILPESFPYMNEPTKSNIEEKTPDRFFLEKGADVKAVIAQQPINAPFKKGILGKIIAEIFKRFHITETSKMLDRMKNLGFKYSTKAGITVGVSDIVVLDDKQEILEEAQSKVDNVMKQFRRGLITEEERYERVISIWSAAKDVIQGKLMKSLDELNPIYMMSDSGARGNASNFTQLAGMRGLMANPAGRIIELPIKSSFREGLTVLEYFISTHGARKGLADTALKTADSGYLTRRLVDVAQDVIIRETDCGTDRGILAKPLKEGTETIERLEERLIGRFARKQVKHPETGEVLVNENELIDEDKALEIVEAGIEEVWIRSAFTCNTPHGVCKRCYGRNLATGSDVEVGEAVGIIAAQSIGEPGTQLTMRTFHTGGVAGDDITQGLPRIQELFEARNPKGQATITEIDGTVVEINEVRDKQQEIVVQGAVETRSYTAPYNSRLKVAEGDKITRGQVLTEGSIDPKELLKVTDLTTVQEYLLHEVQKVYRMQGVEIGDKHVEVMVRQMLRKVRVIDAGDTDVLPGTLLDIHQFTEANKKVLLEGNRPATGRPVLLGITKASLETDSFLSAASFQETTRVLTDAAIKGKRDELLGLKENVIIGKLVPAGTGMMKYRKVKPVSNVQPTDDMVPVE

B1: δ subunit (RpoE) of RNA polymerase (natural protein, UniProt P12464 1-173, looked up)
chain: MGIKQYSQEELKEMALVEIAHELFEEHKKPVPFQELLNEIASLLGVKKEELGDRIAQFYTDLNIDGRFLALSDQTWGLRSWYPYDQLDEETQPTVKAKKKKAKKAVEEDLDLDEFEEIDEDDLDLDEVEEELDLEADDFDEEDLDEDDDDLEIEEDIIDEDDEDYDDEEEEIK
As to B1, the binding result is “binds”.
